Data reported in a protein production outcome set (Wang et al. 2014).

Assay: label from the status in PepcDB records

Sequence | protein production
MSFASETKKELTNLEVKDCCAKAELSALIRMNGSLSFSNRKVVLDVQTENAAIARRIYTLLKKQYDVSVELLVRKKMRLKKNNVYIVRLIENAKPILEDLKILGDNFVIARNISEDLVKKRCCKRSYMRGAFLAGGSVNNPETSSYHLEIFSLYKEHNDSLCRLMNQFHLNSKTLERKKGYITYLKEAEKITEFLNVIGAHNSLLRFEDVRIVRDMRNSVNRLVNCETANLNKTIGASLRQVENIKLIDERIGLDALPEKLREIAQLRIDYQEVTLKELGEMVSSGKISKSGINHRLRKLDEIAEQLR | not failed
MSLVSVIILASGNSQRMGQNKLFLKYQGKTFLEHTLTLVNQLDVLERILVVSPENQPAFPLPKNIQLILNHQWQEGQSSSIRLGTEQARGAGYLYLPSDQPLLTPKMLQLVLDKCQRNKIVVPLQKDGCPSSPVLFGNQFRQELLTLTGEKGGRMIYERFPEAVQMLRIATPGRLKDIDTPEEYQKLIQETNSLEHHHHHH | failed
MRQFPPASSTVISVNFEELQAFVGRNPMLSLALVGLTIAIIVTEIARLFRGYRALKPAELTRLINSENALVIDLSPTADFEKGHIAGSRNVALAKFDPAGKLLANAKSSPVVVVCRSGNASAGAAKTLKKAGFEQVYWLEGGIAAWQMAELPLVKGRA | failed
MTSGATRYRLSCSLRGHELDVRGLVCCAYPPGAFVSVSRDRTTRLWAPDSPNRSFTEMHCMSGHSNFVSCVCIIPSSDIYPHGLIATGGNDHNICIFSLDSPMPLYILKGHKNTVCSLSSGKFGTLLSGSWDTTAKVWLNDKCMMTLQGHTAAVWAVKILPEQGLMLTGSAGKTVKLWKAGRCERTFSGHEDCVRGLAILSETEFLSCANDASIRRWQITGECLEVYYGHTNYIYSISVFPNCRDFVTTAEDRSLRIWKHGECAQTIRLPAQSIWCCCVLDNGDIVVGASDGIIRVFTESEDRTASAEEIKAFEKELSHATIDSKTGDLGDINAEQLPGREHLNEPGTREGQTRLIRDGEKVEAYQWSVSEGRWIKIGDVVGSSGANQQTSGKVLYEGKEFDYVFSIDVNEGGPSYKLPYNTSDDPWLTAYNFLQKNDLNPMFLDQVAKFIIDNTKGQMLGLGNPSFSDPFTGGGRYVPGSSGSSNTLPTADPFTGAGRYVPGSASMGTTMAGVDPFTGNSAYRSAASKTMNIYFPKKEAVTFDQANPTQILGKLKELNGTAPEEKKLTEDDLILLEKILSLICNSSSEKPTVQQLQILWKAINCPEDIVFPALDILRLSIKHPSVNENFCNEKEGAQFSSHLINLLNPKGKPANQLLALRTFCNCFVGQAGQKLMMSQRESLMSHAIELKSGSNKNIHIALATLALNYSVCFHKDHNIEGKAQCLSLISTILEVVQDLEATFRLLVALGTLISDDSNAVQLAKSLGVDSQIKKYSSVSEPAKVSECCRFILNLL | failed
MMGSVLPAEALVLKTGLKAPGLALAEVITSDILHSFLYGRWRNVLGEQLFEDKSHHASPKTAFTAEVLAQSFSGEVQKLSSLVLPAEVIIAQSSIPGEGLGIFSKTWIKAGTEMGPFTGRVIAPEHVDICKNNNLMWEVFNEDGTVRYFIDASQEDHRSWMTYIKCARNEQEQNLEVVQIGTSIFYKAIEMIPPDQELLVWYGNSHNTFLGIPGVPGLEEDQKKNKHEDFHPADSAAGPAGRMRCVICHRGFNSRSNLRSHMRIHTLDKPFVCRFCNRRFSQSSTLRNHVRLHTGERPYKCQVCQSAYSQLAGLRAHQKSARHRPPSTALQAHSPALPAPHAHAPALAAAAAAAAAAAAHHLPAMVL | failed
MYTPVSKSTKSNKNRSSLDKILDAKKPVNLLILGTDTGAEGRSVKNYHGLTDLMMFVTVNPSKKQTRVTTIARDSKVNLPDYPEVSPIKLNSAYSLGGVSETIKTLDKYYSVPIDGYVLVNWASTMKIITKMGGVDVISPLTFDNMGYSFKKGQMYHISGKKALAFVQLRHGDPRQDYGRQERERLVMMAAIKKSVSYKTILNSSFMQSLGDSMQTDLSLNDMIKLAMNYQGVTDNVKSDYAQGKSSSVNNQRFGNMEVEIMSTKERQRISNNIRQTLGIKNVDVYKEDNLEHHHHHH | not failed
MAFSDDLPPPPRVNDHVKTRRNRKRRTIKTKQLEELISTATRAAHVARDKGFYIVSPEAIQCVEILRHMRTLPLNARLITKTDGLRVLLFLSKNGNPKIRSESKAVIDHWKSILHTKVH | failed
MGLTDIFLNLLLFVYPAVFIIYQIILYEISARKQINQEALKYSNLPVLSIIVPIKNEEISVIQGLLDNLSNLIWDKKKLEIIIVSDDNEDYFTKIINTVKVPKDLTVYFYRREKKLGYKSGALQYGFEKATGDLILTIDVDSRLPPNALINAYEKMQSNTCDAIVFQWNGYSSNQYSTLAKGMVVSTLFASKALFEGKEKLKLKIYPVGSGTMFSREALRVVNGWDYRLVQDDLEIGTRLIYNGKNVCASGIPIYVEVPDNFYSFYVQQTRWAMGSAEVLRNRLKYIIKSKISFTQRMDLIIYLLQYTPVIVTFFISTLLSLMLPFRIGHDPLNSPALLFWLVSLGLYASLLLSLALKLGLNLKDSLMGIGRLTAFTVSISPFIVFNFFKGLLKSGNTYVITPKGTVKKTNKLLRIIAIIGVFGLLYLLSSILYIYEGYYVTGIWLLYYSSAYLYTMLLYYKEL | failed
MFMAENRLQLQKGSAEETIERFYNRQGIETIEGFQQMFVTKTLNTEDTDEVKILTIWESEDSFNNWLNSDVFKEAHKNVRLKSDDDGQQSPILSNKVFKYDIGYHYQK | not failed
MNKWAILSLACVPYALLTIVNEDTLEIGGSANIFWKIGLFAPLIGVLFSAGASKTYQRVMLALFNLSYYFVLYIYMIYTF | failed
MEELTQILKNNRTDDLTWFCSLSESELDLLISLKKLAIQRAKISGHQELADKFDLKLLRSLGLVLMEHARKRVQNDTSLAPSVVHQLRLLDNCNLLKTHVDDAVDIEEILTQICDNKSKKKARKRRR | failed
SQFVLQDLQDATLGSLLSSLMQHCDPPQRKYPLEKGTPPPWWPTGNEEWWVKLGLPKSQSPPYRKPHDLKKMWKVGVLTAVINHMLPDIAKIKRHVRQSKCLQDKMTAKESAIWLAVLNQEESLIQQ | not failed
MVCCPVNENAAALVVSDGRVMIWELKSAVCNRNSRNSSSGVSPLYSPVSFCGIPVGVLQNKLPDLSLDNMIGQSAIAGEEHPRGSILREVHLKFLLTGLLSGLPAPQFAIRMCPPLTTKNIKMYQPLLAVGTSNGSVLVYHLTSGLLHKELSIHSCEVKGIEWTSLTSFLSFATSTPNNMGLVRNELQLVDLPTGRSIAFRGERGNDESAIEMIKVSHLKQYLAVVFRDKPLELWDVRTCTLLREMSKNFPTITALEWSPSHNLKSLRKKQLATREAMARQTVVSDTELSIVESSVISLLQEAESKSELSQNISARGHFVFTDIDGQVYHLTVEGNSVKDSARIPPDGSMGSITCIAWKGDTLVLGDMDGNLNFWDLKGRVSRGIPTHRSWVRKIRFAPGKGNQKLIAMYNDGAEVWDTKEVQMVSSLRSGRNVTFRILDVDWCTSDKVILASDDGCIRVLEMSMKSACFRMDEQELTEPVWCPYLLVPRASLALKAFLLHQPWNGQYSLDISHVDYPENEEIKNLLQEQLNSLSNDIKKLLLDPEFTLLQRCLLVSRLYGDESELHFWTVAAHYLHSLSQEKSASTTAPKEAAPRDKLSNPLDICYNVLCENAYFQKFQLERVNLQEVKRSTYDHTRKCTDQLLLLGQTDRAVQLLLETSADNQHYYCDSLKACLVTTVTSSGPSQSTIKLVATNMIANGKLAEGVQLLCLIDKAADACRYLQTYGEWNRAAWLAKVRLNPEECADVLRRWVDHLCSPQVNQKSKALLVLLSLGCFFSVAETLHSMRYFDRAALFVEACLKYGAFEVTEDTEKLITAIYADYARSLKNLGFKQGAVLFASKAGAAGKDLLNELESPKEEPIEE | failed
MPELKVVVSIKQVPDVDELRIDPVTNNLVREGVPAVINPPDLHAIEEAVRLKERYGAKTIVITMGPPQADSALREALAMGIDEAYLISDRAMAGADTWATSYTISKAVQKLGGADLILFGRRAVDGETEQVGPQTGKWLGLPVIGYVSEIKSLEKDKIVVTRTTEFDEEVIEAPVPVVLTILEVANKPRQPDILSLIKAKTAKVTVWNKDDIKAEPNKIGLAGSPTKVIKVQPPPKTRKAEIIDGKKDVEKAAKWFLDKIFESLKE | failed
MMPPNQPLATYLDDAPSHGGMMRERRYYRAYGLTVASDVALPELEPTEPAAADILIAIGTIDMPKPSSEAATIFRFEPDRQYLAWHAVGAFLISDADRIDIEPAPGVDDALLAFPLLGPVMALLLHQRGLLVLHASAIAAAGKGAIFMGDKGAGKSTTASALIRAGHELLTDDVVALDLARPDAPMIVAGFPQIKLAADAAAAISLGRAEVRPQVHPAIEKMQHRLHGAFSGGMVPATRIYVLERGAKAAITALPGIAALPAIIKFSYVTRFGRAALSGDFAALHLRQCSAIANHVGVFRLEVPTGLDRIGEAVALVESDLAAGDLAAGRRRR | failed
MHIKYLWMCDCGGKKSQGVKWLPFILILVIAAGLWQLTPPSGLSAPAWHSAIIFVATIASIVAKVLPIGAVGIIGITVFALAYAAGDKTASGAITTALSELNSSLIWLIVVAFMIARGFIKTGLGRRIALQMIRLLGKRTLGLAYGLAFADLILSPAMPSNTARCGGVIYPIADSLARSFDSHPEDESRSKIGTFLITCIGNVNDVTAALFMTGYTGNLLAVKLAANAGVTLSWGSWFIAALLPCLVSFLIVPLLVYWLTRPEIKHTPDAPDLARKELAQMGSMTRGEWLMLATVGVLLVLWIFGSSLGVDATTASFVGLSILLLSGVLTWEDVKSEKGAWDTLIWFAALLMMANQLKKLGFTSWFGNLIGDSIGSTMHGTSWIIILLLLNAAYFYTHYFFASGNAQIAALYAVFLGVGLHLNIPAAPMALMLAFTSSLYCSLTQYTHARGPILFGAGYVPTGVWWRTGFIISLFNQAVFLTVGLAWWKVLGLY | failed
MSLAADSADAGFARDMSVHHQQAVEMSYIVRDRTDDEEVRRLAYDIAQTQANQRGMMIGWLDLWALPKVSSDPPMTWMGMGDAPSAGEGSLMPGMATDAEMKKLGTLDGKQAEVYYLQLMTEHHRGGVHMAKGCVERCTVGVEKRLARGMVESQESEIRLMADLLAERGAKEGHHHHHH | not failed
MDMLFQWLLLTAAVAAGWAVGRYGNRSGRASRAIMDEDSVRDRLQFLFTNYSDQAVDNFVQSLAVNKDTVSLHLSIGSHFRNKGETDRAILIHQNLLARPELPARYSPQVTQELAMDYLNAGLLDRAEALFHQLMGDREYGRRSAIALIELYQQEREWEKAAQVAKTLTRSDADPATFKALAYITCELSDGALSRNDDRWTAQKLAKEALDYDRSCVRATLLLMKLQIRQGNFREAANQSLKIFDQNPEFGPEAIDRLMKLEREHGDVSRLYKKLRKLYEQYPSTSLLLALVESVERSSGRPAAIDLLRMELETRPSVRGLLRLVEMAGYEKGMTTDEGRLVSRIGHLILANRPVYRCVSCGFSGQQLHWLCPSCKQWETVRPIQGVEAE | failed
MDSGFTLRAPRNDKRRNPMPAILGTGEHRYRVVENFAKLPDGWQLTDVAAVAVDSLDRVYVFNRGAHPMVVLDREGNFLRSWGEGLFSRAHGLHIDADDNLYCTDDGDHTVRKCTSDGKVLLTIGIPAKPAPFMSGEPFHRCTHTALSPKGEIYVSDGYGNARVHKFTPDGKLIKSWGEPGTDPGQFNIVHNIATDSDGWVYVADRENHRVQVFNGEGKYETQWNNLHRPCALCCCGGRSPTFVIGELGPGLDINRNVPNLGPRLSIVDAKGNRIARLGGEEGPGVASGKFLAPHGIALDSKGDIYVGEVGVTNWATSFPDQEMPAVVRATRCLQKLERVRE | failed
ALSSLNIIHIAAPHLEALNIATGETINFSSREDDHAILIYKLEPTTGMLRTRAYIGQHMPLYCSAMGKIYMAFGHPDYVKSYWENHQHEIQPLTRNTITELPAMFDELAHIRESGAAMDREENELGVSCIAVPVFDIHGRVPYAVSISLSTSRLKQVGEKNLLKPLRETAQAISNELGFTVRDDLGAIT | not failed
